Assay results as given in patent US20260210939A1, “MODIFIED OLFACTORY RECEPTORS” (GIVAUDAN SA, priority 2022, published 2026).
Like-named read-outs stand apart in the source and are kept apart here.

Columns and labels:
OR52A5 = target: T1, OR52A5 (Homo sapiens, UniProt Q9H2C5); format: cell-based
T1 construct: Improved functional expression of modified OR-genes containing the truncated, optimized C-terminus; expressed in transfected cells; host or cells: HEK293T stably expressing human RTP1S(V227I) and RTP2(L220R)
T1 sequence (Q9H2C5 with tags, fused parts or gaps): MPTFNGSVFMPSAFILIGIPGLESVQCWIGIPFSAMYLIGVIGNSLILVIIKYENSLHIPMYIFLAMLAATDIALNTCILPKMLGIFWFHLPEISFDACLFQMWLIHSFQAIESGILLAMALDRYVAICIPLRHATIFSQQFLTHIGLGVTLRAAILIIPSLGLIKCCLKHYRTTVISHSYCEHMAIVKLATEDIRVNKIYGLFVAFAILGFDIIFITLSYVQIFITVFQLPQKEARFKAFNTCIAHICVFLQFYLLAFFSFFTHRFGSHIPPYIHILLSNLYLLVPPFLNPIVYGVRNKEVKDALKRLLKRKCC
Protocol: Further variants of the improved C-terminal domain sequence […] (SEQ ID NO: 86) and falling within the general sequence RN[KR][EDQ][VMIL][KR]xA[LIV][KRH][KR][LI][LIF][KRG][KR][KR] (SEQ ID NO: 1) with further amino acids at the C-terminal end (CC) were tested on the class I receptor OR52A5 activated by 4-ethyloctanoic acid. […] This activation is further improved by either replacing amino acid position 4-6 with the sequence QIR or by adding the terminal sequence RRR.

OR5A2 = target: T2, OR5A2 (Homo sapiens, UniProt Q8NGI9); assay: CRE-luciferase assay, HEK293T cells expressing OR5A2 (wild-type / modified C-terminus); format: cell-based; conditions: for fold-induction of luciferase: OR5A2 variant
T2 construct: Improved functional expression of modified OR-genes containing the truncated, optimized C-terminus; expressed in transfected cells; host or cells: HEK293T with stably integrated human RTP1S(V227I) and RTP2(L220R)
T2 sequence (Q8NGI9 with tags, fused parts or gaps): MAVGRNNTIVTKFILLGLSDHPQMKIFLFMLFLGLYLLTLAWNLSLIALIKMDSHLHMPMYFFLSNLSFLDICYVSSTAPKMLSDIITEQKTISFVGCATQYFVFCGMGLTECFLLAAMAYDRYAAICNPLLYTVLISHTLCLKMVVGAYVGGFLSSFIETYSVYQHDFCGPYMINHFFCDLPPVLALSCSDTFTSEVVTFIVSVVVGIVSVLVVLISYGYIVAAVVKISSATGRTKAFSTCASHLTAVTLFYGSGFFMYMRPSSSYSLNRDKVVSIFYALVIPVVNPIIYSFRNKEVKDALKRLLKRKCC

OR5B12 = target: T3, OR5B12 (Homo sapiens, UniProt Q96R08, C141R); assay: CRE-luciferase assay, HEK293T cells expressing OR5B12 (wild-type / modified C-terminus); format: cell-based; conditions: OR5B12 variant
T3 construct: Improved functional expression of modified OR-genes containing the truncated, optimized C-terminus; expressed in transfected cells; host or cells: HEK293T stably expressing human RTP1S(V227I) and RTP2(L220R)
T3 sequence (Q96R08 with tags, fused parts or gaps C141R): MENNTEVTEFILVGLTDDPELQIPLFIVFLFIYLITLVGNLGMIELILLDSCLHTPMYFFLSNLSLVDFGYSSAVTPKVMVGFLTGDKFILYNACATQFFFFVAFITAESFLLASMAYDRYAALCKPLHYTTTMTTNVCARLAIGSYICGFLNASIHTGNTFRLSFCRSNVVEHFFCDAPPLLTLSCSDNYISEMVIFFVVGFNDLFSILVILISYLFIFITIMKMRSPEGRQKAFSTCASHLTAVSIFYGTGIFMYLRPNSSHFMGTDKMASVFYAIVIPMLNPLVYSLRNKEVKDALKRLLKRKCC

OR7C1 = target: T4, OR7C1 (Homo sapiens, UniProt O76099, D296E/G302K/M297V/R299D/T295K/V126I); assay: CRE-luciferase assay, HEK293T cells expressing OR7C1 (wild-type / modified C-terminus); format: cell-based; conditions: OR7C1 variant, 1 μM Ambermax
T4 construct: Improved functional expression of modified OR-genes containing the truncated, optimized C-terminus; expressed in transfected cells; host or cells: HEK293T stably expressing human RTP1S(V227I) and RTP2(L220R)
T4 sequence (O76099 with tags, fused parts or gaps V126I/T295K/D296E/M297V/R299D/G302K): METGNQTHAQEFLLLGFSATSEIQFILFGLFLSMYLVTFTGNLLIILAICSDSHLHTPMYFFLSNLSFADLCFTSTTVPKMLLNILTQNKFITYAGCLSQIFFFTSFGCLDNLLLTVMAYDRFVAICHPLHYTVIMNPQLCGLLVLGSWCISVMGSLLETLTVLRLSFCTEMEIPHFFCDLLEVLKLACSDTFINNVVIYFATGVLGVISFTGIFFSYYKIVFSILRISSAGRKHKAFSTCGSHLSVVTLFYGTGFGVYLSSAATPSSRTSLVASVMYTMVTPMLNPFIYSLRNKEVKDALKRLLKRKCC
Description: To test for possible variants of the sequence […]CC (SEQ ID NO: 86) leading to similar improved functional expression, different point mutations were introduced into the first 16 amino acids of this sequence (corresponding to […], SEQ ID NO: 10) and the variants were fused after the TM7 with OR7C1. […] The test concentrations were selected to fall into the range of partial activity of the wild-type sequence.

OR2T4 = target: T5, OR2T4 (Homo sapiens, UniProt Q8NH00, D328E/G331D/M330K); conditions: OR2T4 variant
T5 sequence (Q8NH00 with tags, fused parts or gaps D328E/M330K/G331D): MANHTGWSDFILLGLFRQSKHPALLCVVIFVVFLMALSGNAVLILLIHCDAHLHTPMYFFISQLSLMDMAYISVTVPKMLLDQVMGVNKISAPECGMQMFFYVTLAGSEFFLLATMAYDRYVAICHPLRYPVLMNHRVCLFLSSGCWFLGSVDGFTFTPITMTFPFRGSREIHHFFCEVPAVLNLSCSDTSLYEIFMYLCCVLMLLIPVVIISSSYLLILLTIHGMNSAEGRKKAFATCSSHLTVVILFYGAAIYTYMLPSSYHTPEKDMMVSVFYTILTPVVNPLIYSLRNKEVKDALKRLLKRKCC

[1] = 4 μM 2-methyl-3-tetrahydrofuranethiol
[2] = 8 μM 2-methyl-3-tetrahydrofuranethiol

Molecule: CCCCC(CC)CCC(=O)O (stereo not shown) [4-ethyloctanoic acid, reference compound]
- Comments on efficacy (OR52A5): 2.5-fold lower
- Fold-improvement threshold (OR52A5; changed C-term. vs wild-type): >10

Molecule: CC1COCc2cc3c(cc21)C(C)(C)C(C)C3(C)C (stereo not shown) [Galaxolide, reference compound]
- Comments on efficacy (OR5A2): No induction
- Detection threshold; concentration for 2-fold induction (OR5A2; changed C-term. SEQ ID NO: 86): 0.0016 µM
- Fold-improvement potency (OR5A2; changed C-term. vs wild-type): >300
- Fold-improvement threshold (OR5A2; changed C-term. vs wild-type): >20000
- concentration at which activation occurs (OR5A2; modified OR5A2, SEQ ID NO: 86): < 0.01 µM
- Detection threshold; concentration for 2-fold induction (OR5A2; wild-type): (>>31) μM

Molecule: CCOc1cc(C=O)ccc1O [ethyl vanillin, reference compound]
- response of the modified receptor (OR5A2; modified OR5A2, SEQ ID NO: 86): no response

Molecule: SEQ ID NO: 117 (RNKEVKKAIKRLFKRKCC; source 1..18: note = C-terminal domain sequence)
- % of the activation by the optimized sequence RNKEVKDALKRLLKRKCC (OR5B12; 31 μM Hedione HC): 435.4%
- % of the activation by the optimized sequence RNKEVKDALKRLLKRKCC (OR5B12; 62.5 μM Hedione HC): 282.5%
- % of the activation by the optimized sequence RNKEVKDALKRLLKRKCC (OR7C1): 310.7%
- % of the activation by the optimized sequence RNKEVKDALKRLLKRKCC (OR2T4; [1]): 96.2%
- % of the activation by the optimized sequence RNKEVKDALKRLLKRKCC (OR2T4; [2]): 88.2%
- fold-induction of luciferase (OR5A2; muscone 0.01 μM): 0.96
- fold-induction of luciferase (OR5A2; muscone 0.03 μM): 1.39
- fold-induction of luciferase (OR5A2; muscone 0.10 μM): 3.49
- fold-induction of luciferase (OR5A2; muscone 0.32 μM): 9.33
- fold-induction of luciferase (OR5A2; muscone 1.00 μM): 19.44
- fold-induction of luciferase (OR5A2; muscone 3.16 μM): 27.31
- fold-induction of luciferase (OR5A2; muscone 10.00 μM): 30.34

Molecule: SEQ ID NO: 156 (RNKEVKDALKRLLKRKCCRRR; source 1..21: note = C-terminal domain sequence)
- % of the activation by the optimized sequence RNKEVKDALKRLLKRKCC (OR5B12; 31 μM Hedione HC): 250.7%
- % of the activation by the optimized sequence RNKEVKDALKRLLKRKCC (OR5B12; 62.5 μM Hedione HC): 233.4%
- fold induction of luciferase by 4-ethyloctanoic acid (OR52A5; 1 µM): 9.39
- fold induction of luciferase by 4-ethyloctanoic acid (OR52A5; 10 µM): 14.90
- fold induction of luciferase by 4-ethyloctanoic acid (OR52A5; 31 µM): 22.00

Molecule: SEQ ID NO: 221 (RNKEVKKAIKRLFKRKCCRRR; source 1..21: note = C-terminal domain sequence)
- % of the activation by the optimized sequence RNKEVKDALKRLLKRKCC (OR5B12; 31 μM Hedione HC): 1032.2%
- % of the activation by the optimized sequence RNKEVKDALKRLLKRKCC (OR5B12; 62.5 μM Hedione HC): 676.0%
- % of the activation by the optimized sequence RNKEVKDALKRLLKRKCC (OR7C1): 498.6%
- % of the activation by the optimized sequence RNKEVKDALKRLLKRKCC (OR2T4; [1]): 103.1%
- % of the activation by the optimized sequence RNKEVKDALKRLLKRKCC (OR2T4; [2]): 130.4%

Molecule: SEQ ID NO: 740 (RNKQIRDALKRLLKRKCC; source 1..18: note = C-terminal domain sequence)
- fold induction of luciferase by 4-ethyloctanoic acid (OR52A5; 1 µM): 10.09
- fold induction of luciferase by 4-ethyloctanoic acid (OR52A5; 10 µM): 12.30
- fold induction of luciferase by 4-ethyloctanoic acid (OR52A5; 31 µM): 19.31
